Results published in patent US20250277030A1 (Zymeworks, published 2025).
Residue numbers refer to the chain shown, from its start.

B1: v29455 humanized anti-NaPi2b antibody (H2L2) (antibody, human IgG1, kappa, V domains shown)
VH: QVQLVQSGAEVKKPGASVKVSCKASGFTFTSYNVHWVRQAPGQGLEWIAAISPGNGDLSYAQKFQGRVTMTVDTSTSTVYMELSSLRSEDTAVYYCARGRTGMGAVDYWGQGTLVTVSS
VL: DVQMTQSPSSLSASVGDRVTITCRASQDVYSYLNWYQQKPGKAVKLLIYYTSRLQSGVPSRFSGSGSGTDYTLTISSLQPEDFATYYCQQYNIFPWTFGQGTKLEIKR
B2: v29451 humanized anti-NaPi2b antibody (H2L3) (antibody, human IgG1, kappa, V domains shown)
VH: B1 VH
VL: B1 VL with F83I
B3: v29459 humanized anti-NaPi2b antibody (H2L1) (antibody, human IgG1, kappa, V domains shown)
VH: B1 VH
VL: B1 VL with V2I, V44P, Y71F
B4: v29457 humanized anti-NaPi2b antibody (H4L1) (antibody, human IgG1, kappa, V domains shown)
VH: B1 VH with V20M, V68A, M70L, T74R, V79A
VL: B1 VL with V2I, V44P, Y71F
B5: v29450 humanized anti-NaPi2b antibody (H3L3) (antibody, human IgG1, kappa, V domains shown)
VH: B1 VH with V20M, V68A, M70L, V79A
VL: B1 VL with F83I
B6: v29458 humanized anti-NaPi2b antibody (H3L1) (antibody, human IgG1, kappa, V domains shown)
VH: B1 VH with V20M, V68A, M70L, V79A
VL: B1 VL with V2I, V44P, Y71F
B7: v29453 humanized anti-NaPi2b antibody (H4L2) (antibody, human IgG1, kappa, V domains shown)
VH: B1 VH with V20M, V68A, M70L, T74R, V79A
VL: B1 VL
B8: v29460 humanized anti-NaPi2b antibody (H1L1) (antibody, human IgG1, kappa, V domains shown)
VH: B1 VH with I48M, A49G, V72R
VL: B1 VL with V2I, V44P, Y71F
B9: v29449 humanized anti-NaPi2b antibody (H4L3) (antibody, human IgG1, kappa, V domains shown)
VH: B1 VH with V20M, V68A, M70L, T74R, V79A
VL: B1 VL with F83I
notes: Full-size IgG1/kappa
B10: v29454 humanized anti-NaPi2b antibody (H3L2) (antibody, human IgG1, kappa, V domains shown)
VH: B1 VH with V20M, V68A, M70L, V79A
VL: B1 VL
B11: v18993-DL2, lifastuzumab conjugated to MT-VC-Compound 1 (DAR 4) (antibody, human IgG1, kappa)
heavy 1: GEVQLVESGGGLVQPGGSLRLSCAASGFSFSDFAMSWVRQAPGKGLEWVATIGRVAFHTYYPDSMKGRFTISRDNSKNTLYLQMNSLRAEDTAVYYCARHRGFDVGHFDFWGQGTLVTVSSASTKGPSVFPLAPSSKSTSGGTAALGCLVKDYFPEPVTVSWNSGALTSGVHTFPAVLQSSGLYSLSSVVTVPSSSLGTQTYICNVNHKPSNTKVDKKVEPKSCDKTHTCPPCPAPELLGGPSVFLFPPKPKDTLMISRTPEVTCVVVDVSHEDPEVKFNWYVDGVEVHNAKTKPREEQYNSTYRVVSVLTVLHQDWLNGKEYKCKVSNKALPAPIEKTISKAKGQPREPQVYVYPPSRDELTKNQVSLTCLVKGFYPSDIAVEWESNGQPENNYKTTPPVLDSDGSFALVSKLTVDKSRWQQGNVFSCSVMHEALHNHYTQKSLSLSPG
heavy 2: not shown
light: GDIQMTQSPSSLSASVGDRVTITCRSSETLVHSSGNTYLEWYQQKPGKAPKLLIYRVSNRFSGVPSRFSGSGSGTDFTLTISSLQPEDFATYYCFQGSFNPLTFGQGTKVEIKRTVAAPSVFIFPPSDEQLKSGTASVVCLLNNFYPREAKVQWKVDNALQSGNSQESVTEQDSKDSTYSLSSTLTLSKADYEKHKVYACEVTHQGLSSPVTKSFNRGEC
modifications: MT-VC-Compound 1 (DL2) on cysteines freed by reduction; positions not given; MT-VC-Compound 1 (DL2) on cysteines freed by reduction; positions not given; DAR 4 for the whole antibody
notes: also called Lifa Compound 1 ADC; lifastuzumab-DL2 ADC

biological target: T1, human sodium-dependent phosphate transporter 2B (NaPi2b) (human, UniProt O95436 1-690); assay: flow cytometry, IGROV-1 cells (endogenous NaPi2b), 24 h at 4 °C; apparent Kd
T1 construct: UniProt ID is given as 095436 [sic]; also called hNaPi2b; Hu NaPi2b
T1 sequence: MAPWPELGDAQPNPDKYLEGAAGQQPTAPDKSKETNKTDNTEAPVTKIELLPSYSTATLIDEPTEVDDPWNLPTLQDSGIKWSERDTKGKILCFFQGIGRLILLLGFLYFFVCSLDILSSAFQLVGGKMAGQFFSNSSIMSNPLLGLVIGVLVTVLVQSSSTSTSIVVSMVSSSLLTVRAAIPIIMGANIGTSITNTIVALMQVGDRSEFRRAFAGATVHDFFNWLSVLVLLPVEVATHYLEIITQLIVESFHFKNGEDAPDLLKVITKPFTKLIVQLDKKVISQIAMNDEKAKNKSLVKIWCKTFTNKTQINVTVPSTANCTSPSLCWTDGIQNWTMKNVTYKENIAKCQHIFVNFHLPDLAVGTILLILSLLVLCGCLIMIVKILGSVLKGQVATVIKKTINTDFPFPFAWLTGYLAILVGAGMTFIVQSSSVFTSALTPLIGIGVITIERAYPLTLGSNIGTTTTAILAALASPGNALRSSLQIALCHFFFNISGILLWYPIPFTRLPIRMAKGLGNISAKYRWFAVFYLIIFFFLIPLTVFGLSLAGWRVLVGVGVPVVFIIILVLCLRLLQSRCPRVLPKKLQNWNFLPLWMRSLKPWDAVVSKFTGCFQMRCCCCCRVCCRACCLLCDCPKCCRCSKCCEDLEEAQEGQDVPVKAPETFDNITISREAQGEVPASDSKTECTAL
Method: (§1) IGROV-1 cells express endogenous NaPi2b at a high level.
(§2) Briefly, cells were seeded at 50,000 cells/well in conical-bottom 96-well plates and treated with test antibody for 24 hours at 4° C. to prevent internalization. […] Following incubation, cells were washed and stained with anti-Human IgG Fc AF647 conjugate (Jackson Immuno Research Labs, West Grove, PA; Cat. No. 109-605-098) at 4° C. for 30 min. Following incubation and washing, fluorescence was detected by flow cytometry on a BD LSRFortessa™ Cell Analyzer (BD Biosciences, Franklin Lake, NJ) with 1,000 minimum events collected per well. The AF647/APC-A GeoMean (fluorescence signal geometric mean, proportional to anti-Human AF647 binding) was calculated for the live cell population using FlowJo™ Version 10.8.1 (BD Biosciences, Franklin Lake, NJ) and plotted for each test antibody using GraphPad Prism Version 9 (GraphPad Software, San Diego, CA).

For B1, which Kd is on record?
The Kd was 1.18 nM.

B2 was tested. Which Kd did it give?
The Kd was 1.49 nM.

B3 was tested. Which Kd did it give?
Its Kd is 1.61 nM.

B4 was tested. Which Kd did it give?
Its Kd is 1.73 nM.

For B5, which Kd is on record?
Its Kd is 0.96 nM.

For B6, which Kd is on record?
Its Kd is 1.39 nM.

Which Kd does the source give for B7 here?
Its Kd is 0.82 nM.

B8 was tested. Which Kd did it give?
Its Kd is 1.67 nM.

With B9 as the binder, how does the Kd read?
Its Kd is 0.79 nM.

Which Kd does the source give for B10 here?
The Kd was 0.92 nM.

For B11, which Kd is on record?
The Kd was 3 nM.

biological target: T1, human sodium-dependent phosphate …; assay: cell-based or functional assay

Which “In vitro cytotoxicity EC50 (nM), HCC-78” value does the source give for B11 here?
Its value is 1.77 nM.

What about the “In vitro cytotoxicity EC50 (nM), IGROV-1” value of the same binder?
Its value is 2.12 nM.

What about the “In vitro cytotoxicity EC50 (nM), OVCAR-3” value of the same binder?
The value was 0.49 nM.

biological target: T1, human sodium-dependent phosphate …; assay: flow cytometry, IGROV-1 cells (endogenous NaPi2b), 24 h at 4 °C
Method: as §1, §2

B1 was tested. Which “Bmax (MFI)” value did it give?
Its value is 41900 MFI.

B2 was tested. Which “Bmax (MFI)” value did it give?
The value was 46200 MFI.

For B3, which “Bmax (MFI)” value is on record?
Its value is 40900 MFI.

For B4, which “Bmax (MFI)” value is on record?
Its value is 44500 MFI.

With B5 as the binder, how does the “Bmax (MFI)” value read?
Its value is 43800 MFI.

With B6 as the binder, how does the “Bmax (MFI)” value read?
Its value is 40800 MFI.

With B7 as the binder, how does the “Bmax (MFI)” value read?
The value was 44500 MFI.

With B8 as the binder, how does the “Bmax (MFI)” value read?
The value was 40100 MFI.

For B9, which “Bmax (MFI)” value is on record?
Its value is 44500 MFI.

Which “Bmax (MFI)” value does the source give for B10 here?
The value was 42300 MFI.

With B11 as the binder, how does the “Bmax (MFI)” value read?
Its value is 39800 MFI.
